The target of series [1] is T1, BtuB, Escherichia coli vitamin B12 transporter (wild type) (Escherichia coli, UniProt P06129 21-614).
T1 sequence (looked up): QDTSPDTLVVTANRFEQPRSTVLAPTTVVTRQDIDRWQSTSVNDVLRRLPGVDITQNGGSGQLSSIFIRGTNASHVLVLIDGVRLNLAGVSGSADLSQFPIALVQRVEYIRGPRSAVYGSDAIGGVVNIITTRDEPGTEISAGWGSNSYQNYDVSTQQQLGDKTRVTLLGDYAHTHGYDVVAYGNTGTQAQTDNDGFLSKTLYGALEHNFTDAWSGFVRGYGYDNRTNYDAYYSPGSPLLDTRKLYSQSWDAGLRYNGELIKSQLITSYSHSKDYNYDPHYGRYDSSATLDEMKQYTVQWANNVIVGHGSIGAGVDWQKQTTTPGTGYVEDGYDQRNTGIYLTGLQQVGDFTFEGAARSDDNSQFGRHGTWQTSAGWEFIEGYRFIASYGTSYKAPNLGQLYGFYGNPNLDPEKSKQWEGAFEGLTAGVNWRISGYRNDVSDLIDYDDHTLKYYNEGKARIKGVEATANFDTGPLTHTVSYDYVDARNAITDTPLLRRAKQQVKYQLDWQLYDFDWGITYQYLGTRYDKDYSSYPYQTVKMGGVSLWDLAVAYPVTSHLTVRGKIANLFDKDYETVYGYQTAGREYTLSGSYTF
In words: fluorescence polarisation. On the technique in general: Polarisation of emitted light reports the rotation of a fluorescent probe.

In series [2] the target is T2, FhuA, Escherichia coli ferrichrome transporter (Escherichia coli, UniProt P06971 34-747).
T2 sequence (looked up): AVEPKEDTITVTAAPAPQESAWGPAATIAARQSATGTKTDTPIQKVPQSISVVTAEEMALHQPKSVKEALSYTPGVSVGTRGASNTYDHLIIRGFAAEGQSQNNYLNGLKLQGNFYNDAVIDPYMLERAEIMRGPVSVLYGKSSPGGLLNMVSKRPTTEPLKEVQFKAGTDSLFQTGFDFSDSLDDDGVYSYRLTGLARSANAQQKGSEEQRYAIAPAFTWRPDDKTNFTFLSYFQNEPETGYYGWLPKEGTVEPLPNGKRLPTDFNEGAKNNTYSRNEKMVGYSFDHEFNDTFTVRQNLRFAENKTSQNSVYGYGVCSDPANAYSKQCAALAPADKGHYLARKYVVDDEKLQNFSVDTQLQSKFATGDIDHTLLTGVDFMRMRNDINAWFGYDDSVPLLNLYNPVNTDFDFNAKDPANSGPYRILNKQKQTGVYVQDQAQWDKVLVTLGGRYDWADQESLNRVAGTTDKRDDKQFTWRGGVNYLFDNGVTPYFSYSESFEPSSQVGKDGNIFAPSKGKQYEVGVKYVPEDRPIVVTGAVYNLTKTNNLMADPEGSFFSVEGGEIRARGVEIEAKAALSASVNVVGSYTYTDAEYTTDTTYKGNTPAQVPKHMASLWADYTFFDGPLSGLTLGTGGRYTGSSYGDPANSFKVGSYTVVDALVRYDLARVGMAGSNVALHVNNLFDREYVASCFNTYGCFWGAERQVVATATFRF
Put plainly: fluorescence polarisation.

The target of series [3] is T1, BtuB, Escherichia coli vitamin B12 …. In words: fluorescence polarisation. The source holds these as a separate data set.
Series [4] addresses T2, FhuA, Escherichia coli ferrichrome …. In words: fluorescence polarisation. This is another data set of the same source.
Series [5] concerns the target T1, BtuB, Escherichia coli vitamin B12 …. Put plainly: continuous-wave EPR lineshape.
The series “DEER” deals with the molecule itself. In words: DEER.
Series [6] concerns the target T2, FhuA, Escherichia coli ferrichrome …. Put plainly: DEER.
The target of series [7] is T3, FecA, Escherichia coli ferric citrate transporter (Escherichia coli, UniProt P13036 34-774).
T3 sequence (looked up): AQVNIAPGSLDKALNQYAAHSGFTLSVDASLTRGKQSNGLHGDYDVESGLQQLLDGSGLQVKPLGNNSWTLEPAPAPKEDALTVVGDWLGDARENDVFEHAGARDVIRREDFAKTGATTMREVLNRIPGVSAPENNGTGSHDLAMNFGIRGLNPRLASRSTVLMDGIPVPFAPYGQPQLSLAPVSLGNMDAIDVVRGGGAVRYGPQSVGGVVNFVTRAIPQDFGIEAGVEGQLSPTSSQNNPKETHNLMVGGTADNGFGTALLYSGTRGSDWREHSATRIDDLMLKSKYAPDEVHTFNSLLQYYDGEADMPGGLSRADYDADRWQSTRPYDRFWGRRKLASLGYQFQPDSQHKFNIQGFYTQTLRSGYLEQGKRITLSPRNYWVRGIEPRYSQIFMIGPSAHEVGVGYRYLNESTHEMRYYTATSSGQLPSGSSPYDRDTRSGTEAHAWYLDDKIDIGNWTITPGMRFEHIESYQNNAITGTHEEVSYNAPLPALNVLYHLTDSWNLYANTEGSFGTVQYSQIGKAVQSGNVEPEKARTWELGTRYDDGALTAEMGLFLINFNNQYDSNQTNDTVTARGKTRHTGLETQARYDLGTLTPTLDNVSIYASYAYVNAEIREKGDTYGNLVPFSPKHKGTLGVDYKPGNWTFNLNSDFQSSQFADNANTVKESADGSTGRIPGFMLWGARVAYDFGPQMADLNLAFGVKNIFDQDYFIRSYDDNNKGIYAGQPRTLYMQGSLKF
Put plainly: DEER.

Read-outs that look alike come from different tables or passages of the source.

B1: TonB_(ΔTMD) L194C labeled with BODIPY FL (domain or fragment)
chain: not shown
modifications: BODIPY FL N-(2-aminoethyl)maleimide on Cys194 (labeling efficiency ~75%)
With B1, the Kd (commonly the free concentration of one partner at which half of the binding sites on the other are occupied at equilibrium, for simple one-to-one binding) was 26 nM in series [1], 38 nM in series [2], 61 nM in series [3] and 64 nM in series [4].

B2: TonB_(ΔTMD) I224R1 (spin-labeled) (domain or fragment)
chain: not shown
modifications: R1 spin-label side chain (cysteine derivatized with MTSL) at 224
With B2, the binding result (in series [5]; in “DEER”) was “binds” throughout.

B3: TonB_(ΔTMD) R187R1 (spin-labeled) (domain or fragment)
chain: not shown
modifications: R1 spin-label side chain (cysteine derivatized with MTSL) at 187
For B3, the binding result in series [5] is on record as “binds”.

B4: TonB_(ΔTMD) E203R1 (spin-labeled) (domain or fragment)
chain: not shown
modifications: R1 spin-label side chain (cysteine derivatized with MTSL) at 203
In the case of B4, the binding result (in series [5]; in “DEER”; in series [6]; in series [7]) was “binds” in each case.

The values above are taken from article PMC3630801 (Biochemistry, 2013).
